Measurements reported in the supplement of paper PMC7877785.
± gives the uncertainty stated by the source.

Experiment: self-splicing fitness, log relative to wild type (ln ratio); higher = more splicing; Tetrahymena group I intron in knt gene, E. coli kanamycin selection, DiMSum; sequences stand for … in CUCUCU…GGAGGGAAAAGUUAUCAGGCAUGCACCUGGUAGCUAGUCUUUAAACCAAUAGAUUGCAUCGGUUUAAAAGGCAAGACCGUCAAAUUGCGGGAAAGGGGUCAACAGCCGUUCAGUACCAAGUCUCAGGGGAAACUUUGAGAUGGCCUUGCAAAGGGUAUGGUAAUAAGCUGACGGACAUGGUCCUAACCACGCAGCCAAGUCCUAAGUCAACAGAUCUUCUGUUGAUAUGGAUGCAGUUCACAGACUAAAUGUCGGUCGGGGAAGAUGUAUUCUUCUCAUAAGAUAUAGUCGGACCUCUCCUUAAUGGGAGCUAGCGGAUGAAGUGAUGCAACACUGGAGCCGCUGGGAACUAAUUUGUAUGCGAAAGUAUAUUGAUUAGUUUUGGAGUACUCGUGGUCG
Method in brief: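 Six replicate transformations of E. coli BL21(DE3) with a pET-22b(+) library were grown overnight at 37°C or 30°C. The library randomised all eight P1ex-region intron nucleotides, the intron lying in the knt kanamycin-resistance gene, and plates were LB agar with or without 25 μg/mL kanamycin plus 100 μg/mL carbenicillin, 50 μM IPTG and 0.2% rhamnose. Pooled colonies were amplicon-sequenced on an Illumina HiSeq 2500, and fitness is the DiMSum error-weighted combination of wild-type-normalised replicate fold changes, kanamycin versus none.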

## GAACAGCAAUAUUACGCCAU
30 °C
  self-splicing fitness (ln): -3.82 ± 0.2
37 °C
  self-splicing fitness (ln): -2.14 ± 0.18

## CGUUAGCAAUAUUACGUCUA
30 °C
  self-splicing fitness (ln): -3 ± 0.28
37 °C
  self-splicing fitness (ln): -2.33 ± 0.24

## UGCGAGCAAUAUUACGCGGU
30 °C
  self-splicing fitness (ln): -2.46 ± 0.17
37 °C
  self-splicing fitness (ln): -2.43 ± 0.19

## AUUCAGCAAUAUUACGGCCG
30 °C
  self-splicing fitness (ln): -1.09 ± 0.3
37 °C
  self-splicing fitness (ln): -0.945 ± 0.3

## CCUCAGCAAUAUUACGACAU
30 °C
  self-splicing fitness (ln): -3.84 ± 0.024
37 °C
  self-splicing fitness (ln): -2.84 ± 0.039

## UACGAGCAAUAUUACGUGUC
30 °C
  self-splicing fitness (ln): -3.32 ± 0.17
37 °C
  self-splicing fitness (ln): -2.83 ± 0.28

## AAAGAGCAAUAUUACGCGAG
30 °C
  self-splicing fitness (ln): -1.87 ± 0.12
37 °C
  self-splicing fitness (ln): -1.58 ± 0.13

## UACAAGCAAUAUUACGUCGG
30 °C
  self-splicing fitness (ln): -2.46 ± 0.082
37 °C
  self-splicing fitness (ln): -0.921 ± 0.088

## AAGCAGCAAUAUUACGGGGC
30 °C
  self-splicing fitness (ln): -3.15 ± 0.23
37 °C
  self-splicing fitness (ln): -2.54 ± 0.24

## GUGCAGCAAUAUUACGAAGA
30 °C
  self-splicing fitness (ln): -2.35 ± 0.46
37 °C
  self-splicing fitness (ln): -0.855 ± 0.15

## CAGGAGCAAUAUUACGGUUG
30 °C
  self-splicing fitness (ln): -1.89 ± 0.085
37 °C
  self-splicing fitness (ln): -0.54 ± 0.12

## ACGUAGCAAUAUUACGCACG
30 °C
  self-splicing fitness (ln): -2.31 ± 0.2
37 °C
  self-splicing fitness (ln): -1.98 ± 0.19

## GCUUAGCAAUAUUACGGUCA
30 °C
  self-splicing fitness (ln): -1.04 ± 0.13
37 °C
  self-splicing fitness (ln): -0.448 ± 0.14

## AGUCAGCAAUAUUACGCAAU
30 °C
  self-splicing fitness (ln): -0.997 ± 0.075
37 °C
  self-splicing fitness (ln): 0.245 ± 0.096

## ACAAAGCAAUAUUACGCCGU
30 °C
  self-splicing fitness (ln): -2.44 ± 0.16
37 °C
  self-splicing fitness (ln): -1.41 ± 0.21

## CCAGAGCAAUAUUACGGCGG
30 °C
  self-splicing fitness (ln): -3.72 ± 0.18
37 °C
  self-splicing fitness (ln): -1.92 ± 0.24

## AAGGAGCAAUAUUACGUCGC
37 °C
  self-splicing fitness (ln): -1.49 ± 0.35

## AGGUAGCAAUAUUACGCCGC
30 °C
  self-splicing fitness (ln): -3.58 ± 0.053
37 °C
  self-splicing fitness (ln): -2.77 ± 0.067

## GUACAGCAAUAUUACGAGCC
30 °C
  self-splicing fitness (ln): -1.6 ± 0.36
37 °C
  self-splicing fitness (ln): -2.01 ± 0.46

## GUUGAGCAAUAUUACGUUCG
30 °C
  self-splicing fitness (ln): -1.34 ± 0.086
37 °C
  self-splicing fitness (ln): -1.67 ± 0.11

## CUAGAGCAAUAUUACGCCGA
37 °C
  self-splicing fitness (ln): -2.06 ± 0.43

## UCCCAGCAAUAUUACGAUCU
30 °C
  self-splicing fitness (ln): -3.77 ± 0.23
37 °C
  self-splicing fitness (ln): -1.95 ± 0.24

## CUCAAGCAAUAUUACGUUAA
30 °C
  self-splicing fitness (ln): -4.15 ± 0.3
37 °C
  self-splicing fitness (ln): -2.76 ± 0.19

## UACUAGCAAUAUUACGAUGU
30 °C
  self-splicing fitness (ln): -3.42 ± 0.27
37 °C
  self-splicing fitness (ln): -1.74 ± 0.22

## CGGCAGCAAUAUUACGAGAA
30 °C
  self-splicing fitness (ln): -3.01 ± 0.19
37 °C
  self-splicing fitness (ln): -2.32 ± 0.19

## CGGCAGCAAUAUUACGAGGG
30 °C
  self-splicing fitness (ln): -2.39 ± 0.39
37 °C
  self-splicing fitness (ln): -2.15 ± 0.33

## CGCUAGCAAUAUUACGCAGG
30 °C
  self-splicing fitness (ln): -3.17 ± 0.18
37 °C
  self-splicing fitness (ln): -1.83 ± 0.23

## AGUAAGCAAUAUUACGAUCA
30 °C
  self-splicing fitness (ln): 0.197 ± 0.16
37 °C
  self-splicing fitness (ln): -0.44 ± 0.15

## AGGCAGCAAUAUUACGCCGC
30 °C
  self-splicing fitness (ln): -2.8 ± 0.18
37 °C
  self-splicing fitness (ln): -2.66 ± 0.29

## CCGUAGCAAUAUUACGUCUU
30 °C
  self-splicing fitness (ln): -4.01 ± 0.34
37 °C
  self-splicing fitness (ln): -2.96 ± 0.23

## GGACAGCAAUAUUACGGCGA
30 °C
  self-splicing fitness (ln): -0.0139 ± 0.1
37 °C
  self-splicing fitness (ln): -0.0325 ± 0.11

## UUAUAGCAAUAUUACGUGAA
30 °C
  self-splicing fitness (ln): -1.91 ± 0.18
37 °C
  self-splicing fitness (ln): -0.849 ± 0.17

## GAAUAGCAAUAUUACGACCU
30 °C
  self-splicing fitness (ln): -0.378 ± 0.11
37 °C
  self-splicing fitness (ln): 0.363 ± 0.13

## UAAUAGCAAUAUUACGAGAA
37 °C
  self-splicing fitness (ln): -1.22 ± 0.26

## GUCGAGCAAUAUUACGGGGC
37 °C
  self-splicing fitness (ln): -1.57 ± 0.28

## CCUGAGCAAUAUUACGACUA
30 °C
  self-splicing fitness (ln): -2.81 ± 0.25
37 °C
  self-splicing fitness (ln): -1.79 ± 0.24

## ACAUAGCAAUAUUACGCCUA
30 °C
  self-splicing fitness (ln): -1.7 ± 0.24
37 °C
  self-splicing fitness (ln): -0.307 ± 0.2

## UAGAAGCAAUAUUACGGAGC
37 °C
  self-splicing fitness (ln): -3.93 ± 0.46

## UGCUAGCAAUAUUACGACAU
30 °C
  self-splicing fitness (ln): -2.027 ± 0.016
37 °C
  self-splicing fitness (ln): -1.05 ± 0.034

## CUCGAGCAAUAUUACGGCCA
30 °C
  self-splicing fitness (ln): -2.34 ± 0.24
37 °C
  self-splicing fitness (ln): -3.47 ± 0.35

## AGUUAGCAAUAUUACGUCCC
30 °C
  self-splicing fitness (ln): -0.148 ± 0.21
37 °C
  self-splicing fitness (ln): -0.452 ± 0.2

## UGUAAGCAAUAUUACGCGAU
30 °C
  self-splicing fitness (ln): -3.35 ± 0.29
37 °C
  self-splicing fitness (ln): -1.25 ± 0.21

## UCUCAGCAAUAUUACGUCAA
30 °C
  self-splicing fitness (ln): -3.21 ± 0.27
37 °C
  self-splicing fitness (ln): -2.35 ± 0.21
